From article doi:10.1101/2022.03.17.482250 (bioRxiv, 2022)
Values belong to the molecule of their own block, whether it stands above or below them.

B1: Full-length mouse BICDR1 (natural protein)
chain: MSAFCLGLAGRASAPAEPDSACCMELPAGAGDAVRSPATAAALVSFPGGPGELELALEEELALLAAGERSSEPGEHPQAEPESPVEGHGPPLPPPPTQDPELLSVIRQKEKDLVLAARLGKALLERNQDMSRQYEQMHKELTDKLEHLEQEKHELRRRFENREGEWEGRVSELETDVKQLQDELERQQLHLREADREKTRAVQELSEQNQRLLDQLSRASEVERQLSMQVHALKEDFREKNSSTNQHIIRLESLQAEIKMLSDRKRELEHRLSATLEENDLLQGTVEELQDRVLILERQGHDKDLQLHQSQLELQEVRLSYRQLQGKVEELTEERSLQSSAATSTSLLSEIEQSMEAEELEQEREQLRLQLWEAYCQVRYLCSHLRGNDSADSAVSTDSSMDESSETSSAKDVPAGSLRTALNDLKRLIQSIVDGVEPTVTLLSVEMTALKEERDRLRVTSEDKEPKEQLQKAIRDRDEAIAKKNAVELELAKCKMDMMSLNSQLLDAIQQKLNLSQQLEAWQDDMHRVIDRQLMDTHLKEQSRPAAAAFPRGHGVGRGQEPSTADGKRLFSFFRKI
B2: Dynein light intermediate chain (natural protein)
chain: MAPVGVEKKLLLGPNGPAVAAAGDLTSEEEEGQSLWSSILSEVSTRARSKLPSGKNILVFGEDGSGKTTLMTKLQGAEHGKKGRGLEYLYLSVHDEDRDDHTRCNVWILDGDLYHKGLLKFAVSAESLPETLVIFVADMSRPWTVMESLQKWASVLREHIDKMKIPPEKMRELERKFVKDFQDYMEPEEGCQGSPQRRGPLTSGSDEENVALPLGDNVLTHNLGIPVLVVCTKCDAVSVLEKEHDYRDEHLDFIQSHLRRFCLQYGAALIYTSVKEEKNLDLLYKYIVHKTYGFHFTTPALVVEKDAVFIPAGWDNEKKIAILHENFTTVKPEDAYEDFIVKPPVRKLVHDKELAAEDEQVFLMKQQSLLAKQPATPTRASESPARGPSGSPRTQGRGGPASVPSSSPGTSVKKPDPNIKNNAASEGVLASFFNSLLSKKTGSPGSPGAGGVQSTAKKSGQKTVLSNVQEELDRMTRKPDSMVTNSSTENEA

Columns and labels:
Experiment in all cases: cryo-EM structure
[1] = molecular target: Dynactin (pig (endogenous in pig brain)) (UniProt F2Z5G5)
[2] = molecular target: the molecule itself
[3] = molecular target: B1

stoichiometry N (dynein dimers in the complex) [1]: 2
Molecule: Human cytoplasmic dynein-1 (from UniProt Q14204;Q13409;O43237;Q9NP97) (complex)

Molecule: B1
stoichiometry N (adaptors per dynein-dynactin complex) [1]: 2
binding result [2]: binds

Molecule: B2
binding result [3]: binds
